Like-named read-outs stand apart in the source and are kept apart here.
Experiments:
[1] = target: recombinant human DcR3 (decoy receptor 3) (human) (UniProt O95407); assay: SPR; Biacore 3000; DcR3 amine-coupled to a CM5 chip; TRAIL 1-2048 nM or LIGHT 1-512 nM flowed at 20 µl/minute; HBS-EP buffer (10 mM HEPES pH 7.4, 150 mM NaCl, 3.4 mM EDTA, 0.005% Surfactant P20); 1:1 binding model, global analysis
[2] = target: recombinant human DcR3 (decoy receptor 3) (human) (UniProt O95407); assay: as above; remark: listed apart in the source

Sequence of recombinant human DcR3 (decoy receptor 3) (human) (O95407 30-300): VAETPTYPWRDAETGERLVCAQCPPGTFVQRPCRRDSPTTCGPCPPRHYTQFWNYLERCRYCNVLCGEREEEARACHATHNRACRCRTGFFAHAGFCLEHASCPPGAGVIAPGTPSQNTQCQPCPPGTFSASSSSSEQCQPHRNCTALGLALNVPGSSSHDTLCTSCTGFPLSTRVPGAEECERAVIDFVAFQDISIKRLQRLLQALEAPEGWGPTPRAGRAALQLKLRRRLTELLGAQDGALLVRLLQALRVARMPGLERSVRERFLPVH

## recombinant human TRAIL (TNF-related apoptosis-inducing ligand) (from UniProt P50591 1-281)
[1]
  Kd: 52.8 nM
  koff: 0.00104 s⁻¹
  kon: 19400 M⁻¹ s⁻¹
[2]
  kon: 19700 M⁻¹ s⁻¹

Reference: article PMC3808375, “Reduction of Decoy Receptor 3 Enhances TRAIL-Mediated Apoptosis in Pancreatic Cancer” (PLoS ONE, 2013)
